Laboratory results: article PMC9367475

Tests used:
[1] = target: DC-SIGN on THP-1 cells induced with PMA and IL-4 (DC-THP-1) (human (endogenous in THP-1)) (UniProt Q9NNX6); assay: cell binding assay (immunofluorescence read on a microplate reader); DC-HEK or DC-THP-1 cells in microtiter wells (1 x 10^5 cells/well); spike pseudotypes pre-incubated with or without rfhSP-D (20 µg/ml) added for 2 h at room temperature; fixed, anti-spike and Alexa Fluor 488 secondary antibody
[2] = target: human DC-SIGN expressed on HEK 293T cells (DC-HEK) (human) (UniProt Q9NNX6); assay: as above
[3] = target: DC-SIGN on THP-1 cells induced with PMA and IL-4 (DC-THP-1) (human (endogenous in THP-1)) (UniProt Q9NNX6)
[4] = target: human DC-SIGN expressed on HEK 293T cells (DC-HEK) (human) (UniProt Q9NNX6)

| Substance | increase of binding with rfhSP-D (20 µg/ml) against untreated [1] [%] | increase of binding with rfhSP-D (20 µg/ml) against untreated [2] [%] | luciferase reporter activity (pseudotype transduction of DC-THP-1 cells), with rfhSP-D 20 µg/ml against untreated [3] [%] | luciferase reporter activity (pseudotype transduction of DC-HEK cells), with rfhSP-D 20 µg/ml against untreated [4] [%] |
| --- | --- | --- | --- | --- |
| SARS-CoV-2 spike protein on lentiviral pseudotypes (from UniProt P0DTC2 14-1273) (natural protein; other documents disagree on this pair) | 25 | 50 |  |  |
| SARS-CoV-2 spike protein on lentiviral pseudotypes (from UniProt P0DTC2 14-1273) (natural protein) |  |  | 90 | 190 |
